Molecular target: the molecule itself
Assay: SEC-SAXS; purified complexes loaded at 2.55 (CBKP1P2), 0.72 (CBKP1) and 3 mg/ml (CBKP2) on a Bio-SEC3 column; 20 mM Tris pH 8.5, 300 mM NaCl, 5 mM 2-mercaptoethanol, 5% glycerol

B1: CBKP1, four-subunit PaKEOPS complex (PaCgi121/PaBud32/PaKae1/PaPcc1) (complex)
chain 1: MTPKFKNFKHDNSGQVETYLFEVISKYTMLEIKTKFGKLCIAKVKLASESIERALNLCNDNCQIVSAKCHEEVIFATILAIKAFSSGRNTAKTIKGEILLRLAGVKQIKDAIKIIGARKGENLIIYFGVSDPCSSLKDFISSLGLREEPLKPCDEDEVKRGFERAAIIEAL
chain 2: MKLIKQGAEAKIYLAEFSELYFDYPIKVIVKERIKKRYRIPEIDLKLRKERTIREARILRRAKEFGVNVPYVFEVDTKNMIIVMEYIEGERLKELLEKLPMEERLKVCREVGRQIGKLHEAGIVHGDLTTSNMILREGKVYFIDFGLAEFDDTIEAQGVDLHLLKRAMESTHYKWFERGFEEVLKGYIEIRGEDKGREIREKIREIELRGRYRERSWITQ
chain 3: MLALGIEGTAHTLGIGIVSEDKVLANVFDTLTTEKGGIHPKEAAEHHARLMKPLLRKALSEAGVSLDDIDVIAFSQGPGLGPALRVVATAARALAVKYRKPIVGVNHCIAHVEITKMFGVKDPVGLYVSGGNTQVLALEGGRYRVFGETLDIGIGNAIDVFARELGLGFPGGPKVEKLAEKGEKYIELPYAVKGMDLSFSGLLTEAIRKYRSGKYRVEDLAYSFQETAFAALVEVTERAVAHTEKDEVVLVGGVAANNRLREMLRIMTEDRGIKFFVPPYDLCRDNGAMIAYTGLRMYKAGISFRLEETIVKQKFRTDEVEIVW
chain 4: MKPKRVQGKIVIEFPSEDIAEVVYTSVLYEHVSVPYRRSRVNFRREGRRIVLEIEANDSSAMRGTVNSYLRWIKVALDVLNI
- stoichiometry N: 2
